Where two headings read alike, the source gives them in different places. Each block holds one binder with its values, some of them ahead of it.
Legend:
[1] = molecular target: T1, activin AB (UniProt P08476 311-426; P09529 293-407); experiment: Biacore SPR
T1 sequence (looked up) 1: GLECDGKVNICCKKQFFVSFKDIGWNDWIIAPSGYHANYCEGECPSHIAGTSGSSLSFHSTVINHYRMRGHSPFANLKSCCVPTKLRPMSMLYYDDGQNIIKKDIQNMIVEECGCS
T1 sequence (looked up) 2: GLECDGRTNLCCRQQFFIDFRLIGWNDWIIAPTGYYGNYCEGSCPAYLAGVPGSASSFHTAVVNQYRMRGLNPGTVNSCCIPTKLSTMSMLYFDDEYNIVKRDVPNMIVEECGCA
Experimental: (§1) Ligands were injected and allowed to flow over the captured receptor protein.

[2] = molecular target: T2, BMP10 (UniProt O95393 317-424); experiment: Biacore SPR
T2 sequence (looked up): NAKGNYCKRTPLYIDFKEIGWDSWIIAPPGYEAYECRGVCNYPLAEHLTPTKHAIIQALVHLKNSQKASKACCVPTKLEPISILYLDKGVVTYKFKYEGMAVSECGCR
Experimental: as §1

[3] = molecular target: T3, BMP7 (UniProt P18075 293-431); experiment: Biacore SPR
T3 sequence (looked up): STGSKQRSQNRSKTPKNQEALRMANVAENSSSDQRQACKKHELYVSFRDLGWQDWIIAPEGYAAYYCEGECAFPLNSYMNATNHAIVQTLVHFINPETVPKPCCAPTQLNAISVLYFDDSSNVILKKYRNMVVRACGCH
Experimental: as §1

[4] = molecular target: T4, BMP6 (UniProt P22004 382-513, limits assumed); experiment: Biacore SPR
T4 sequence (looked up): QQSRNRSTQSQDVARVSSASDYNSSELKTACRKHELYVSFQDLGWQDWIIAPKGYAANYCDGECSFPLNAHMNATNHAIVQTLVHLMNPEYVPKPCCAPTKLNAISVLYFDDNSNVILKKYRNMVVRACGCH
Experimental: as §1

[5] = molecular target: T5, GDF11 (UniProt O95390 299-407); experiment: Biacore SPR
T5 construct: also called BMP11
T5 sequence (looked up): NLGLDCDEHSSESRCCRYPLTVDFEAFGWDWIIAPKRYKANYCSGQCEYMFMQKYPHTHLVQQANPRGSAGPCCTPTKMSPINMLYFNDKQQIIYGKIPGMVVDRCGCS
Experimental: as §1

[6] = molecular target: T6, activin A (UniProt P08476 311-426); experiment: Biacore SPR
T6 sequence (looked up): T1 sequence (looked up) 1
Experimental: as §1

[7] = molecular target: T7, activin AC (UniProt P08476 311-426; P55103 237-352); experiment: Biacore SPR
T7 sequence (looked up) 1: T1 sequence (looked up) 1
T7 sequence (looked up) 2: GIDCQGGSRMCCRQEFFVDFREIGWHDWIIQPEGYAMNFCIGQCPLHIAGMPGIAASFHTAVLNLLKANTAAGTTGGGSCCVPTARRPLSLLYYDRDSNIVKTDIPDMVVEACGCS
Experimental: as §1

[8] = molecular target: T5, GDF11; experiment: Biacore SPR; † very low signal
Experimental: as §1

[9] = molecular target: T5, GDF11; experiment: Biacore SPR; † very low signal; remark: listed apart in the source
Experimental: as §1

[10] = molecular target: T5, GDF11; experiment: Biacore SPR; remark: listed apart in the source
Experimental: as §1

[11] = molecular target: T8, activin B (UniProt P09529 293-407); experiment: Biacore SPR
T8 sequence (looked up): T1 sequence (looked up) 2
Experimental: as §1

[12] = molecular target: T6, activin A; experiment: Biacore SPR; remark: listed apart in the source
Experimental: as §1

[13] = molecular target: T9, BMP15 (UniProt O95972 268-392); experiment: Biacore SPR
T9 construct: also called GDF9b
T9 sequence (looked up): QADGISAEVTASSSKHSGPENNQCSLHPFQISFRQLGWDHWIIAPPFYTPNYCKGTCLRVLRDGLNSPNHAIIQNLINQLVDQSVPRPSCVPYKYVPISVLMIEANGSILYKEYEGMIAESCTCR
Experimental: as §1

[14] = molecular target: T1, activin AB; experiment: Biacore SPR; remark: listed apart in the source
Experimental: as §1

[15] = molecular target: T10, BMP9 (UniProt Q9UK05 320-429); experiment: Biacore SPR
T10 construct: also called GDF2
T10 sequence (looked up): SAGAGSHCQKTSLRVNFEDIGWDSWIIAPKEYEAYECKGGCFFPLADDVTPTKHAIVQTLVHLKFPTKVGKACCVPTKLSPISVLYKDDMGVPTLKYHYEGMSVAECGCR
Experimental: as §1

[16] = molecular target: T6, activin A; experiment: Biacore SPR; remark: listed apart in the source
Experimental: as §1

[17] = molecular target: T2, BMP10; experiment: Biacore SPR; remark: listed apart in the source
Experimental: as §1

[18] = molecular target: T10, BMP9; experiment: Biacore SPR; remark: listed apart in the source
Experimental: as §1

[19] = molecular target: T4, BMP6; experiment: Biacore SPR; remark: listed apart in the source
Experimental: as §1

[20] = molecular target: T5, GDF11; experiment: Biacore SPR; remark: listed apart in the source
Experimental: as §1

[21] = molecular target: T11, GDF8 (UniProt O14793 267-375); experiment: Biacore SPR
T11 construct: also called myostatin
T11 sequence (looked up): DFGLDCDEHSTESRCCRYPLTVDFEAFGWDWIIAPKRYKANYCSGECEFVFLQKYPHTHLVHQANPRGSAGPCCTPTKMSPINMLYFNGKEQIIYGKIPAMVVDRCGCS
Experimental: as §1

[22] = molecular target: T12, GDF3 (UniProt Q9NR23 251-364); experiment: Biacore SPR
T12 sequence (looked up): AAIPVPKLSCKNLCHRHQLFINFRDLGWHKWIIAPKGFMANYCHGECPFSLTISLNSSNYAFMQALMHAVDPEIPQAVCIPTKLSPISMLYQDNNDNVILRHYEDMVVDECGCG
Experimental: as §1

[23] = molecular target: T8, activin B; experiment: Biacore SPR; remark: listed apart in the source
Experimental: as §1

[24] = molecular target: T13, TGFβ2 (human, UniProt P61812 303-414); experiment: Biacore SPR
T13 construct: Human (PeproTech) is stated for the A549 reporter assay; also called TGF-beta2
T13 sequence (looked up): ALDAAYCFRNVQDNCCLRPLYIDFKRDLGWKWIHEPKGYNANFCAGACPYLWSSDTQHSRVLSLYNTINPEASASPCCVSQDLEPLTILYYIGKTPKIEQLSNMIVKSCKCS
Experimental: (§2) The heteromeric or homomeric protein complexes were independently captured onto the system using an anti-Fc antibody. Ligands were injected and allowed to flow over the captured receptor protein.

[25] = molecular target: T14, TGFβ3 (human, UniProt P10600 301-412); experiment: Biacore SPR
T14 construct: Human (PeproTech) is stated for the A549 reporter assay; also called TGF-beta3
T14 sequence (looked up): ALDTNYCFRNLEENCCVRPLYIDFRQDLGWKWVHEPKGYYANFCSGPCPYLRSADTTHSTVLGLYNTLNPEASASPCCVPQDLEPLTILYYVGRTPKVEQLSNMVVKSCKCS
Experimental: as §2

[26] = molecular target: T15, TGFβ1 (human, UniProt P01137 279-390); experiment: Biacore SPR
T15 construct: Human (PeproTech) is stated for the A549 reporter assay; also called TGF-beta1
Experimental: as §2

T15 sequence (P01137 279-390 limits assumed): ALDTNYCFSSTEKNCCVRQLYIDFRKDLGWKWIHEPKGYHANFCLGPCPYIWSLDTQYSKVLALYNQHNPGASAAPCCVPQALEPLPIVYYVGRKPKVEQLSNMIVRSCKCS

- Kd [1]: 2 nM
- koff [1]: 0.0036 s⁻¹
- kon [1]: 1.8e+06 M⁻¹ s⁻¹
- binding result [2]: no binding
- binding result [3]: no binding
- binding result [4]: no binding
- koff [5]: 0.0048 s⁻¹
- kon [5]: 5e+06 M⁻¹ s⁻¹
- Kd [6]: 20 nM
- koff [6]: 0.012 s⁻¹
- kon [6]: 580000 M⁻¹ s⁻¹
- binding result [7]: no binding
- Kd [8]: 0.97 nM
- Kd [9]: 0.97 nM
- koff [10]: 0.0048 s⁻¹
- kon [10]: 5e+06 M⁻¹ s⁻¹
- binding result [11]: no binding
- Kd [12]: 20 nM
- koff [12]: 0.012 s⁻¹
- kon [12]: 580000 M⁻¹ s⁻¹
- binding result [13]: no binding
- Kd [14]: 1.5 nM
- koff [14]: 0.0064 s⁻¹
- kon [14]: 4.4e+06 M⁻¹ s⁻¹
- binding result [15]: no binding
- Kd [16]: 20 nM
- koff [16]: 0.012 s⁻¹
- kon [16]: 580000 M⁻¹ s⁻¹
B1: ALK4-Fc homodimer (Fc fusion, UniProt P36896 24-126, looked up, not shown: a dimerising Fc or GST)
chain: SGPRGVQALLCACTSCLQANYTCETDGACMVSIFNLDGMEHHVRTCIPKVELVPAGKPFYCLSSEDLRNTHCCYTDYCNRIDLRVPSGHLKEPEHPSMWGPVE
notes: extracellular domain

- binding result [17]: no binding
- binding result [18]: no binding
- binding result [19]: no binding
- binding result [20]: no binding
- binding result [21]: no binding
- binding result [22]: no binding
- binding result [23]: no binding
- binding result [24]: no binding
- binding result [25]: no binding
- binding result [26]: no binding
B2: ALK5-Fc homodimer (Fc fusion, UniProt P36897 34-126, looked up, not shown: a dimerising Fc or GST)
chain: LQCFCHLCTKDNFTCVTDGLCFVSVTETTDKVIHNSMCIAEIDLIPRDRPFVCAPSSKTGSVTTTYCCNQDHCNKIELPTTVKSSPGLGPVEL
notes: extracellular domain

Source: patent publication US20190225669A1 (ACCELERON PHARMA, published 2019)
